Measured values: publication PMC8173049 (2021)

Target: HAdV-D26 capsid (replication-defective, E1-deleted vector particle with a GFP-luciferase fusion expression … (human adenovirus D26))
Assay: SPR

B1: human lactoferrin (natural protein)
chain: GRRRSVQWCAVSQPEATKCFQWQRNMRKVRGPPVSCIKRDSPIQCIQAIAENRADAVTLDGGFIYEAGLAPYKLRPVAAEVYGTERQPRTHYYAVAVVKKGGSFQLNELQGLKSCHTGLRRTAGWNVPIGTLRPFLNWTGPPEPIEAAVARFFSASCVPGADKGQFPNLCRLCAGTGENKCAFSSQEPYFSYSGAFKCLRDGAGDVAFIRESTVFEDLSDEAERDEYELLCPDNTRKPVDKFKDCHLARVPSHAVVARSVNGKEDAIWNLLRQAQEKFGKDKSPKFQLFGSPSGQKDLLFKDSAIGFSRVPPRIDSGLYLGSGYFTAIQNLRKSEEEVAARRARVVWCAVGEQELRKCNQWSGLSEGSVTCSSASTTEDCIALVLKGEADAMSLDGGYVYTAGKCGLVPVLAENYKSQQSSDPDPNCVDRPVEGYLAVAVVRRSDTSLTWNSVKGKKSCHTAVDRTAGWNIPMGLLFNQTGSCKFDEYFSQSCAPGSDPRSNLCALCIGDEQGENKCVPNSNERYYGYTGAFRCLAENAGDVAFVKDVTVLQNTDGNNNEAWAKDLKLADFALLCLDGKRKPVTEARSCHLAMAPNHAVVSRMDKVERLKQVLLHQQAKFGRNGSDCPDKFCLFQSETKNLLFNDNTECLARLHGKTTYEKYLGPQYVAGITNLKKCSTSPLLEACEFLRK
B1 showed a Kd of 2550 nM.
